These results are taken from paper PMC6695210, “Bipartite interface of the measles virus phosphoprotein X domain with the large polymerase protein regulates viral polymerase dynamics” (PLoS Pathogens, 2019).

First the molecules themselves.
B1: MeV phosphoprotein (P), wild type [measles virus (strain IC-B)] / MeV L_(1708), C-terminally truncated large polymerase protein lacking the methyltransferase domain [measles virus (strain IC-B)] (parent complex)
chain 1: MAEEQARHVKNGLECIRALKAEPIGSLAVEEAMAAWSEISDNPGQDRATCKEEEAGSSGLSKPCLSAIGSTEGGAPRIRGQGSGESDDDAETLGIPSRNLQASSTGLQCYHVYDHSGEAVKGIQDADSIMVQSGLDGDSTLSGGDDESENSDVDIGEPDTEGYAITDRGSAPISMGFRASDVETAEGGEIHELLKLQSRGNNFPKLGKTLNVPPPPNPSRASTSETPIKKGTDARLASFGTEIASLLTGGATQCARKSPSEPSGPGAPAGNVPECVSNAALIQEWTPESGTTISPRSQNNEEGGDYYDDELFSDVQDIKTALAKIHEDNQKIISKLESLLLLKGEVESIKKQINRQNISISTLEGHLSSIMIAIPGLGKDPNDPTADVELNPDLKPIIGRDSGRALAEVLKKPVASRQLQGMTNGRTSSRGQLLKEFQLKPIGKKVSSAVGFVPDTGPASRSVIRSIIKSSRLEEDRKRYLMTLLDDIKGANDLAKFHQMLMKIIMK
chain 2: MDSLSVNQILYPEVHLDSPIVTNKIVAILEYARVPHAYSLEDPTLCQNIKHRLKNGFSNQMIINNVEVGNVIKSKLRSYPAHSHIPYPNCNQDLFNIEDKESTRKIRELLKKGNSLYSKVSDKVFQCLRDTNSRLGLGSELREDIKEKIINLGVYMHSSQWFEPFLFWFTVKTEMRSVIKSQTHTCHRRRHTPVFFTGSSVELLISRDLVAIISKESQHVYYLTFELVLMYCDVIEGRLMTETAMTIDARYAELLGRVRYMWKLIDGFFPALGNPTYQIVAMLEPLSLAYLQLRDITVELRGAFLNHCFTEIHDVLDQNGFSDEGTYHELIEALDYIFITDDIHLTGEIFSFFRSFGHPRLEAVTAAENVRKYMNQPKVIVYETLMKGHAIFCGIIINGYRDRHGGSWPPLTLPLHAADTIRNAQASGEGLTHEQCVDNWKSFAGVRFGCFMPLSLDSDLTMYLKDKALAALQREWDSVYPKEFLRYDPPKGTGSRRLVDVFLNDSSFDPYDMIMYVVSGAYLHDPEFNLSYSLKEKEIKETGRLFAKMTYKMRACQVIAENLISNGIGKYFKDNGMAKDEHDLTKALHTLAVSGVPKDLKESHRGGPVLKTYSRSPVHTSTRNVKAEKGFVGFPHVIRQNQDTDHPENIETYETVSAFITTDLKKYCLNWRYETISLFAQRLNEIYGLPSFFQWLHKRLETSVLYVSDPHCPPDLDAHVPLCKVPNDQIFIKYPMGGIEGYCQKLWTISTIPYLYLAAYESGVRIASLVQGDNQTIAVTKRVPSTWPYNLKKREAARVTRDYFVILRQRLHDIGHHLKANETIVSSHFFVYSKGIYYDGLLVSQSLKSIARCVFWSETIVDETRAACSNIATTMAKSIERGYDRYLAYSLNVLKVIQQILISLGFTINSTMTRDVVIPLLTNNDLLIRMALLPAPIGGMNYLNMSRLFVRNIGDPVTSSIADLKRMILASLMPEETLHQVMTQQPGDSSFLDWASDPYSANLVCVQSITRLLKNITARFVLIHSPNPMLKGLFHDDSKEEDERLAAFLMDRHIIVPRAAHEILDHSVTGARESIAGMLDTTKGLIRASMRKGGLTSRVITRLSNYDYEQFRAGMVLLTGRKRNVLIDKESCSVQLARALRSHMWARLARGRPIYGLEVPDVLESMRGHLIRRHETCVICECGSVNYGWFFVPSGCQLDDIDKETSSLRVPYIGSTTDERTDMKLAFVRAPSRSLRSAVRIATVYSWAYGDDDSSWNEAWLLARQRANVSLEELRVITPISTSTNLAHRLRDRSTQVKYSGTSLVRVARYTTISNDNLSFVISDKKVDTNFIYQQGMLLGLGVLETLFRLEKDTGSSNTVLHLHVETDCCVIPMIDHPRIPSSRKLELRAELCTNPLIYDNAPLIDRDATRLYTQSHRRHLVEFVTWSTPQLYHILAKSTALSMIDLVTKFEKDHMNEISALIGDDDINSFITEFLLIEPRLFTIYLGQCAAINWAFDVHYHRPSGKYQMGELLSSFLSRMSKGVFKVLVNALSHPKIYKKFWHCGIIEPIHGPSLDAQNLHTTVCNMVYTCYMTYLDLLLNEELEEFTFLLCESDEDVVPDRFDNIQAKHLCVLADLYCQPGTCPPIRGLRPVEKCAVLTDHIKAEARLSPAGSSWNINPIIVDHYSCSLTYLRRGSIKQIRLRVDPGFIFDALAEVNVSQPKVGSN

In the first assay the parent is B1. The assay is described as follows: co-immunoprecipitation (IP anti-HA of P, immunoblot of L anti-FLAG, densitometry); lysates of transiently transfected cells, lysed 24 hours after transfection; IP at 4°C; parent: 100; read off a plot.
For the variant chain 1 P396A, chain 1 I397A, chain 1 I398A, chain 1 G399A, the percent of parent was ~22 % of wild type P.

Take chain 1 D401A, chain 1 S402A, chain 1 G403A, chain 1 R404A: the percent of parent is ~19 % of wild type P.

As to chain 1 D383A, chain 1 P384A, chain 1 T385A, the percent of parent was ~55 % of wild type P.

On to chain 1 G431A, chain 1 Q432A, chain 1 L433A, chain 1 L434A, for which the percent of parent was ~85 % of wild type P.

With chain 1 E408A, chain 1 V409A, chain 1 L410A, the percent of parent is ~30 % of wild type P.

For chain 1 S447A, chain 1 S448A, chain 1 V450A, the percent of parent was ~92 % of wild type P.

With chain 1 R404A, chain 1 L406A, the percent of parent was ~14 % of wild type P.

For the variant chain 1 L377A, chain 1 G378A, chain 1 K379A, chain 1 D380A, the percent of parent is ~78 % of wild type P.

For chain 1 K440A, chain 1 P441A, chain 1 I442A, chain 1 G443A, the percent of parent was ~75 % of wild type P.

The variants in another assay derive from B1. The description is as above. This is another data set of the same source.
As for chain 1 T483R, the percent of parent was ~85 % of wild type P.

Turning to chain 1 R465E, the percent of parent is ~62 % of wild type P.

On to chain 1 D486R, for which the percent of parent is ~130 % of wild type P.

Consider chain 1 D493K, for which the percent of parent was ~150 % of wild type P.

For chain 1 F497D, the percent of parent is ~120 % of wild type P.

As to chain 1 K469E, the percent of parent is ~75 % of wild type P.

Consider chain 1 S462R, for which the percent of parent is ~75 % of wild type P.

Consider chain 1 R479E, for which the percent of parent is ~82 % of wild type P.

A further assay covers variants of B1. The description is as above. The source holds these as a separate data set.
Regarding chain 1 MAEEQARHVKNGLECIRALKAEPIGSLAVEEAMAAWSEISDNPGQDRATCKEEEAGSSGLSKPCLSAIGSTEGGAPRIRGQGSGESDDDAETLGIPSRNLQASSTGLQCYHVYDHSGEAVKGIQDADSIMVQSGLDGDSTLSGGDDESENSDVDIGEPDTEGYAITDRGSAPISMGFRASDVETAEGGEIHELLKLQSRGNNFPKLGKTLNVPPPPNPSRASTSETPIKKGTDARLASFGTEIASLLTGGATQCARKSPSEPSGPGAPAGNVPECVSNAALIQEWTPESGTTISPRSQNNEEGGDYYDDELFSDVQDIKTALAKIHEDNQKIISKLESLLLLKGEVESIKKQINRQNISIAAAAGHLSSIMIAIPGLGKDPNDPTADVELNPDLKPIIGRDSGRALAEVLKKPVASRQLQGMTNGRTSSRGQLLKEFQLKPIGKKVSSAVGFVPDTGPASRSVIRSIIKSSRLEEDRKRYLMTLLDDIKGANDLAKFHQMLMKIIMK [chain 1 S361A, chain 1 T362A, chain 1 L363A, chain 1 E364A], the percent of parent is ~3 % of wild type P.

In the case of chain 1 S369A, chain 1 I370A, chain 1 M371A, chain 1 I372A, the percent of parent was ~14 % of wild type P.

Regarding chain 1 G365A, chain 1 H366A, chain 1 L367A, chain 1 S368A, the percent of parent was ~12 % of wild type P.

For the variant chain 1 I374A, chain 1 P375A, chain 1 G376A, chain 1 L377A, the percent of parent is ~9 % of wild type P.

The variants in the next assay derive from B1. Described as above. This is another data set of the same source.
With chain 1 A495R, the percent of parent was ~78 % of wild type P.

For chain 1 S470R, the percent of parent was ~65 % of wild type P.

Regarding chain 1 H498E, the percent of parent is ~18 % of wild type P.

For chain 1 V463R, the percent of parent was ~5 % of wild type P.

Turning to chain 1 S466R, the percent of parent is ~20 % of wild type P.

With chain 1 A491R, the percent of parent is ~120 % of wild type P.

On to chain 1 M502R, for which the percent of parent was ~120 % of wild type P.

In a further assay the parent is B1. Described as above. This is another data set of the same source.
In the case of chain 1 L363A, the percent of parent is ~38 % of wild type P.

Turning to chain 1 S361A, chain 1 T362A, the percent of parent was ~95 % of wild type P.

With chain 1 E364A, the percent of parent is ~44 % of wild type P.

As for chain 1 L363A, chain 1 E364A, the percent of parent was ~20 % of wild type P.

As to chain 1 S361A, the percent of parent was ~85 % of wild type P.
